Values belong to the binder of their own block, whether it stands above or below them.
Experiments:
Test in all cases: holdup assay
Design in all cases: key: below the threshold = too weak to quantify, mostly under pKd 3.1 to 4
Conditions in all cases: plain residues with an end cap or a label only (N-terminal biotin on a linker: ado-ado)
[1] = biological target: T1, DFNB31_3, Q9P202
T1 sequence (Q9P202 811-907, limits assumed, looked up): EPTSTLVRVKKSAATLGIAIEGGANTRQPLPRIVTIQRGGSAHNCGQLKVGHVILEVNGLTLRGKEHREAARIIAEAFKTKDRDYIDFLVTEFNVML

[2] = biological target: DLG4_2, P78352
[3] = biological target: DLG4_3, P78352
[4] = biological target: T2, DVL3, Q92997
T2 sequence (Q92997 244-331, limits assumed, looked up): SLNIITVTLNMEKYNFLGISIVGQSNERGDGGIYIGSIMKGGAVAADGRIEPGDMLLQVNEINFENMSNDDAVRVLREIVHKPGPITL

[5] = biological target: GIPC2, Q8TF65
[6] = biological target: GORASP1, Q9BQQ3
[7] = biological target: GORASP2, Q9H8Y8
[8] = biological target: T3, GRIP1_2, Q9Y3R0
T3 sequence (Q9Y3R0 145-248, limits assumed, looked up): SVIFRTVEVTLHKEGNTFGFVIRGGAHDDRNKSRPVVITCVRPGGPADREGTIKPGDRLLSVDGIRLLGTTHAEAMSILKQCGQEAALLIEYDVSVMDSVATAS

[9] = biological target: T4, GRIP1_3, Q9Y3R0
T4 sequence (Q9Y3R0 247-346, limits assumed, looked up): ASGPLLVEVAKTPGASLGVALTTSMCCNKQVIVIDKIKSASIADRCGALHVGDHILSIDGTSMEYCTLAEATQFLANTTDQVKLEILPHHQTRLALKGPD

[10] = biological target: T5, GRIP1_5, Q9Y3R0
T5 sequence (Q9Y3R0 568-668, limits assumed, looked up): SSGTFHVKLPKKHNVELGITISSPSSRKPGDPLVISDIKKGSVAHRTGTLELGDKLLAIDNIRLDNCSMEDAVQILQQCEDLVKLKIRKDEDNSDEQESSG

[11] = biological target: HTRA1, Q92743
[12] = biological target: Inadl_10, Q8NI35
[13] = biological target: T6, LIN7A, O14910
T6 sequence (O14910 103-200, limits assumed, looked up): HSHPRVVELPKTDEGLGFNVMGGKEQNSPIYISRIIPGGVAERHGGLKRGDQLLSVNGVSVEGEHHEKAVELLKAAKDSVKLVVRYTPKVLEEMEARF

[14] = biological target: LNX1_1, Q8TBB1
[15] = biological target: LNX1_3, Q8TBB1
[16] = biological target: MAGI1_1, Q96QZ7
[17] = biological target: MAST2, Q6P0Q8
[18] = biological target: NHERF4_2, Q86UT5
[19] = biological target: NHERF4_4, Q86UT5
[20] = biological target: PDLIM1, O00151
[21] = biological target: T7, PDZRN3_1, Q9UPQ7
T7 sequence (Q9UPQ7 244-349, limits assumed, looked up): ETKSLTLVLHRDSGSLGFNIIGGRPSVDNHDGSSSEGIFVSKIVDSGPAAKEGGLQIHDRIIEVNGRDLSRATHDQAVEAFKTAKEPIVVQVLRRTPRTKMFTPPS

[22] = biological target: PDZRN4_1, Q6ZMN7
[23] = biological target: T8, RADIL, Q96JH8
T8 sequence (Q96JH8 971-1071, limits assumed, looked up): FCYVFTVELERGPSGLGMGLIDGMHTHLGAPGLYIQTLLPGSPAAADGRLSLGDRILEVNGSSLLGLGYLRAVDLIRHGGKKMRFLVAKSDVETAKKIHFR

[24] = biological target: T9, RAPGEF6, Q8TEU7
T9 sequence (Q8TEU7 525-625, limits assumed, looked up): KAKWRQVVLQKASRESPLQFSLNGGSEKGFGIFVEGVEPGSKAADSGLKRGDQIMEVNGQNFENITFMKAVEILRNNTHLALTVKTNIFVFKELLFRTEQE

[25] = biological target: T10, RHPN1, Q8TCX5
T10 sequence (Q8TCX5 508-602, limits assumed, looked up): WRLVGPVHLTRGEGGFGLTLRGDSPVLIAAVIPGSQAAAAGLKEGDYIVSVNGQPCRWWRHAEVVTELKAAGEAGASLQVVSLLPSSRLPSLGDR

[26] = biological target: SCRIB_1, Q14160
[27] = biological target: TJP2_1, Q9UDY2
TJP2_1, Q9UDY2, sequence (Q9UDY2 24-128): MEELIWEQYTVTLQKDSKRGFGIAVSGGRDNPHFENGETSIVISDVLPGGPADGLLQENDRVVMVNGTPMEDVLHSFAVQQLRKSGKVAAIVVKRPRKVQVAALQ

GORASP1, Q9BQQ3, sequence (Q9BQQ3 1-208): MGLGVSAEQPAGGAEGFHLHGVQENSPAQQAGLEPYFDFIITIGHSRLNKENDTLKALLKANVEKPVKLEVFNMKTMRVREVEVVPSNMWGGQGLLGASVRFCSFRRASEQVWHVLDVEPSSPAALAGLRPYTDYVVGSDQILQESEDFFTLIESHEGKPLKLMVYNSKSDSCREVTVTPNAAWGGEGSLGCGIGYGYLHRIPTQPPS
PDLIM1, O00151, sequence (O00151 1-87): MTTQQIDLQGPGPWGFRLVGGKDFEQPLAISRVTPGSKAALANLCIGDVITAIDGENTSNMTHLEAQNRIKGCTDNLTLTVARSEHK
MAGI1_1, Q96QZ7, sequence (Q96QZ7 1-106): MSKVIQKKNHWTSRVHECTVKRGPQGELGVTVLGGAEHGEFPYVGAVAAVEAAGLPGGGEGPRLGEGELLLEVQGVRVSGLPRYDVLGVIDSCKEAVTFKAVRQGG
DLG4_3, P78352, sequence (P78352 306-403): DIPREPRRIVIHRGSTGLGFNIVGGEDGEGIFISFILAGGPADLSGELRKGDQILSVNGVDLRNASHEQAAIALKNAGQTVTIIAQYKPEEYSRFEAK
NHERF4_2, Q86UT5, sequence (Q86UT5 220-308): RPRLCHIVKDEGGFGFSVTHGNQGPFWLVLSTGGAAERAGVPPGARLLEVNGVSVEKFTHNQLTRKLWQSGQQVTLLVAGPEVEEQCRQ
DLG4_2, P78352, sequence (P78352 155-259): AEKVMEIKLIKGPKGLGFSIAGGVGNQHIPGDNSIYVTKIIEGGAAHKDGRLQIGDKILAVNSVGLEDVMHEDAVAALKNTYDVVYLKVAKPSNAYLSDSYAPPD
MAST2, Q6P0Q8, sequence (Q6P0Q8 1099-1202): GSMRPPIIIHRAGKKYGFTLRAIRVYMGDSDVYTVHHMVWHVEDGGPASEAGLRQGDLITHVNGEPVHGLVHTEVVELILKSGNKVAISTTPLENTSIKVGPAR
GIPC2, Q8TF65, sequence (Q8TF65 112-203): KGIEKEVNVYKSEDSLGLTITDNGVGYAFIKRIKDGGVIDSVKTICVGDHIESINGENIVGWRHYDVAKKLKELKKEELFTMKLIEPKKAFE
LNX1_3, Q8TBB1, sequence (Q8TBB1 500-596): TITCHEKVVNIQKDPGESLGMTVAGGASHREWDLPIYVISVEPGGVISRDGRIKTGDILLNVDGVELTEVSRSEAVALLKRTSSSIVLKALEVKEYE
LNX1_1, Q8TBB1, sequence (Q8TBB1 261-371): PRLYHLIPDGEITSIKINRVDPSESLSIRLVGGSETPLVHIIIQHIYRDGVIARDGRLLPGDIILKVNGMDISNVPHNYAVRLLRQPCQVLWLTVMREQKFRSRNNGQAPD
PDZRN4_1, Q6ZMN7, sequence (Q6ZMN7 213-318): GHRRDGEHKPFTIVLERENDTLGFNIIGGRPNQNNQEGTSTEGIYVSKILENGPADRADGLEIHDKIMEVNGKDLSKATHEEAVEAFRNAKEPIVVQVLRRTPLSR
Inadl_10, Q8NI35, sequence (Q8NI35 1673-1763): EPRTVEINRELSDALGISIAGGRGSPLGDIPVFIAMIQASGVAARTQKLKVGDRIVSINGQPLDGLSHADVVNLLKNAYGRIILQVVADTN
HTRA1, Q92743, sequence (Q92743 360-477): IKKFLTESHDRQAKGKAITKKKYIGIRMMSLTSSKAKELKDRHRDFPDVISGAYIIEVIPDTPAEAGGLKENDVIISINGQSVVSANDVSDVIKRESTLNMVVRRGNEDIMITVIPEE
NHERF4_4, Q86UT5, sequence (Q86UT5 464-550): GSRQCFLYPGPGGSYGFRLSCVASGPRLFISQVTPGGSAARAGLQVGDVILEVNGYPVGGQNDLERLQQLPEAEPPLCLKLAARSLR
SCRIB_1, Q14160, sequence (Q14160 718-814): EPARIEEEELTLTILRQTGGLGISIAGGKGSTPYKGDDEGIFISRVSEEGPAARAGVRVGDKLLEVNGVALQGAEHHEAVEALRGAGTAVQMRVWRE

Binder: QSPANIYYKV [EFNB1, P52799]
pKd [1]: below the threshold
pKd [2]: below the threshold
pKd [3]: below the threshold
pKd [4]: below the threshold
pKd [5]: below the threshold
pKd [6]: 4.85
pKd [7]: 5.16
pKd [8]: below the threshold
pKd [9]: below the threshold
pKd [10]: below the threshold
pKd [11]: 4.37
pKd [12]: below the threshold
pKd [13]: below the threshold
pKd [14]: below the threshold
pKd [15]: 4.38
pKd [16]: below the threshold
pKd [17]: 4.56
pKd [18]: below the threshold
pKd [19]: below the threshold
pKd [20]: below the threshold
pKd [21]: below the threshold
pKd [22]: below the threshold
pKd [23]: 4.05
pKd [24]: below the threshold
pKd [25]: below the threshold
pKd [26]: below the threshold
pKd [27]: below the threshold

Binder: QSARLWETSI [ADAM22, Q9P0K1]
pKd [1]: 4.2
pKd [2]: 4.18
pKd [3]: 4.23
pKd [4]: below the threshold
pKd [5]: 4.11
pKd [6]: below the threshold
pKd [7]: 3.55
pKd [8]: below the threshold
pKd [9]: below the threshold
pKd [10]: below the threshold
pKd [11]: 3.92
pKd [12]: 3.8
pKd [13]: 3.69
pKd [14]: 4.43
pKd [15]: below the threshold
pKd [16]: below the threshold
pKd [17]: 5.62
pKd [18]: below the threshold
pKd [19]: 3.91
pKd [20]: below the threshold
pKd [21]: 4.87
pKd [22]: 5
pKd [23]: 3.71
pKd [24]: below the threshold
pKd [25]: 4.57
pKd [26]: 5.23
pKd [27]: below the threshold

Second part, the binder after the results:

pKd [1]: below the threshold
pKd [2]: 3.84
pKd [3]: below the threshold
pKd [4]: below the threshold
pKd [5]: 3.74
pKd [6]: below the threshold
pKd [7]: below the threshold
pKd [8]: below the threshold
pKd [9]: below the threshold
pKd [10]: below the threshold
pKd [11]: below the threshold
pKd [12]: below the threshold
pKd [13]: below the threshold
pKd [14]: 3.52
pKd [15]: below the threshold
pKd [16]: below the threshold
pKd [17]: 4.58
pKd [18]: below the threshold
pKd [19]: 3.92
pKd [20]: below the threshold
pKd [21]: 3.78
pKd [22]: 3.62
pKd [23]: below the threshold
pKd [24]: below the threshold
pKd [25]: 4.01
pKd [26]: 3.91
pKd [27]: below the threshold
Binder: MLSKQSESAI [FLVCR1, Q9Y5Y0]

pKd [1]: 4.09
pKd [2]: 3.63
pKd [3]: below the threshold
pKd [4]: below the threshold
pKd [5]: below the threshold
pKd [6]: below the threshold
pKd [7]: below the threshold
pKd [8]: below the threshold
pKd [9]: below the threshold
pKd [10]: below the threshold
pKd [11]: 3.55
pKd [12]: below the threshold
pKd [13]: below the threshold
pKd [14]: 3.86
pKd [15]: below the threshold
pKd [16]: below the threshold
pKd [17]: 4.15
pKd [18]: below the threshold
pKd [19]: below the threshold
pKd [20]: below the threshold
pKd [21]: below the threshold
pKd [22]: below the threshold
pKd [23]: 3.71
pKd [24]: below the threshold
pKd [25]: 4.06
pKd [26]: 4.58
pKd [27]: 3.6
Binder: SAAKVLTSMC [GHRHR, Q02643]
